{
  "source": "paper PMC5385842",
  "about": "(Science signaling, 2016)",
  "proteins": {"B1": {"name": "pre-B cell receptor (pre-BCR) on the surface of 697 cells (complex)", "chain 1": "GSASAPTLFPLVSCENSPSDTSSVAVGCLAQDFLPDSITFSWKYKNNSDISSTRGFPSVLRGGKYAATSQVLLPSKDVMQGTDEHVVCKVQHPNGNKEKNVPLPVIAELPPKVSVFVPPRDGFFGNPRKSKLICQATGFSPRQIQVSWLREGKQVGSGVTTDQVQAEAKESGPTTYKVTSTLTIKESDWLGQSMFTCRVDHRGLTFQQNASSMCVPDQDTAIRVFAIPPSFASIFLTKSTKLTCLVTDLTTYDSVTISWTRQNGEAVKTHTNISESHPNATFSAVGEASICEDDWNSGERFTCTVTHTDLPSPLKQTISRPKGVALHRPDVYLLPPAREQLNLRESATITCLVTGFSPADVFVQWMQRGQPLSPEKYVTSAPMPEPQAPGRYFAHSILTVSEEEWNTGETYTCVVAHEALPNRVTERTVDKSTEGEVSADEEGFENLWATASTFIVLFLLSLFYSTTVTLFKVK", "chain 2": "QPVLHQPPAMSSALGTTIRLTCTLRNDHDIGVYSVYWYQQRPGHPPRFLLRYFSQSDKSQGPQVPPRFSGSKDVARNRGYLSISELQPEDEAMYYCAMGARSSEKEEREREWEEEMEPTAARTRVP", "chain 3": "LLRPTAASQSRALGPGAPGGSSRSSLRSRWGRFLLQRGSWTGPRCWPRGFQSKHNSVTHVFGSGTQLTVLSQPKATPSVTLFPPSSEELQANKATLVCLMNDFYPGILTVTWKADGTPITQGVEMTTPSKQSNNKYAASSYLSLTPEQWRSRRSYSCQVMHEGSTVEKTVAPAECS", "chain 4": "LWMHKVPASLMVSLGEDAHFQCPHNSSNNANVTWWRVLHGNYTWPPEFLGPGEDPNGTLIIQNVNKSHGGIYVCRVQEGNESYQQSCGTYLRVRQPPPRPFLDMGEGTKNRIITAEGIILLFCAVVPGTLLLFRKRWQNEKLGLDAGDEYEDENLYEGLNLDDCSMYEDISRGLQGTYQDVGSLNIGDVQLEKP", "chain 5": "ARSEDRYRNPKGSACSRIWQSPRFIARKRGFTVKMHCYMNSASGNVSWLWKQEMDENPQQLKLEKGRMEESQNESLATLTIQGIRFEDNGIYFCQQKCNNTSEVYQGCGTELRVMGFSTLAQLKQRNTLKDGIIMIQTLLIILFIIVPIFLLLDKDDSKAGMEEDHTYEGLDIDQTATYEDIVTLRTGEVKWSVGEHPGQE"}},
  "molecular_target": "the molecule itself",
  "assay": "two-colour single-particle tracking",
  "data": [
    {"protein": "B1", "values": [
      {"measurement": "koff", "result": 1.14, "unit": "s⁻¹"},
      {"measurement": "stoichiometry N", "result": 2}
    ]}
  ]
}
